Measured values: patent publication CN117247456A (SANYOU BIO INC, dated 2023)

Tests used:
重组人PD-L1-His = 重组人PD-L1-His (human, UniProt Q9NZQ7 19-238); test: SPR, Biacore T200, PD-L1-His as analyte (reference antibody)
[1] = molecular target: T1, 人PD-L1 on huPD-L1-CHO-S细胞 (human, UniProt Q9NZQ7 19-290); test: flow cytometry on huPD-L1-CHO-S cells (reference antibody)
T1 construct: whole, on cells; also called 细胞表面PD-L1

重组人PD-L1-mFc = molecular target: T2, 重组人PD-L1-mFc (human, UniProt Q9NZQ7 19-238); test: ELISA, plate coated with PD-L1-mFc, anti-human IgG Fc-HRP (reference antibody)
T2 construct: also called 人重组蛋白PD-L1-mFc; PD-L1蛋白
T2 sequence (Q9NZQ7 19-238 limits assumed): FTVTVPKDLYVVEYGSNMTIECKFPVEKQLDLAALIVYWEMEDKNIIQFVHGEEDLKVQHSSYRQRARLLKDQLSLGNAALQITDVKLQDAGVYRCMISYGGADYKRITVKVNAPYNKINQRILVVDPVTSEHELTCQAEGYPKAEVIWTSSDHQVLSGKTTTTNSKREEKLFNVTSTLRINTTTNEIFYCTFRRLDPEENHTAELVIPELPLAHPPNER

Measured: binding result

Chain of 重组人PD-L1-His (Q9NZQ7 19-238 limits assumed): as above
T1 sequence (Q9NZQ7 19-290): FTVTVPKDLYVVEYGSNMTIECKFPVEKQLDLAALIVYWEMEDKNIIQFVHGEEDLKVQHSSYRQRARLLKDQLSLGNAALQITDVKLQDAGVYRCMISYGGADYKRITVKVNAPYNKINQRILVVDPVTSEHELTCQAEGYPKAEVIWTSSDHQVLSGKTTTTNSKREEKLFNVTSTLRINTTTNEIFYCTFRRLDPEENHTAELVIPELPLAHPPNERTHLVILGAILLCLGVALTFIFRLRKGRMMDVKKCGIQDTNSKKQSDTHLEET

B1: 抗人PD-L1抗体D21-4 (antibody, V domains shown)
VH: EVQLVESGGGLVQPGGSLRLSCAASRTDRNINTMHWYRQAPGKGREWVGTIFIDLNTIVTDSVKGRFTISRDNAKNTLYLQMNTLRAEDTAVYYCAADVSGYGRAWGQGTTVTVSS
notes: also called 亲本抗体D21-4; 亲本PD-L1抗体D21-4; not shown: rest of the 'complete control antibody' (constant part / Fc) is not described
binds: 重组人PD-L1-His | [1] | 重组人PD-L1-mFc
